Experiments:
Assay in all cases: cell-based or functional assay
[1] = target: beta1 integrin on mammary epithelial cells (MECs) (UniProt P09055)
[2] = target: hypoglycosylated dystroglycan of vector-infected MDA-MB-231 human breast cancer cells and LN18 human glioma cells (human) (UniProt Q14118)
[3] = target: wild type human beta1 integrin re-expressed by retrovirus in beta1 integrin-knockout E3D1cre19 MECs (human) (UniProt P05556)
[4] = target: glycosylated dystroglycan of LARGE-expressing MDA-MB-231 human breast cancer cells and LN18 human glioma cells (human) (UniProt Q14118)
[5] = target: human dystroglycan (WT DG) expressed by retrovirus in DG-knockout MEpG mammary epithelial cells (human) (UniProt Q14118)

Sequence of wild type human beta1 integrin re-expressed by retrovirus in beta1 integrin-knockout E3D1cre19 MECs (human) (P05556 21-798): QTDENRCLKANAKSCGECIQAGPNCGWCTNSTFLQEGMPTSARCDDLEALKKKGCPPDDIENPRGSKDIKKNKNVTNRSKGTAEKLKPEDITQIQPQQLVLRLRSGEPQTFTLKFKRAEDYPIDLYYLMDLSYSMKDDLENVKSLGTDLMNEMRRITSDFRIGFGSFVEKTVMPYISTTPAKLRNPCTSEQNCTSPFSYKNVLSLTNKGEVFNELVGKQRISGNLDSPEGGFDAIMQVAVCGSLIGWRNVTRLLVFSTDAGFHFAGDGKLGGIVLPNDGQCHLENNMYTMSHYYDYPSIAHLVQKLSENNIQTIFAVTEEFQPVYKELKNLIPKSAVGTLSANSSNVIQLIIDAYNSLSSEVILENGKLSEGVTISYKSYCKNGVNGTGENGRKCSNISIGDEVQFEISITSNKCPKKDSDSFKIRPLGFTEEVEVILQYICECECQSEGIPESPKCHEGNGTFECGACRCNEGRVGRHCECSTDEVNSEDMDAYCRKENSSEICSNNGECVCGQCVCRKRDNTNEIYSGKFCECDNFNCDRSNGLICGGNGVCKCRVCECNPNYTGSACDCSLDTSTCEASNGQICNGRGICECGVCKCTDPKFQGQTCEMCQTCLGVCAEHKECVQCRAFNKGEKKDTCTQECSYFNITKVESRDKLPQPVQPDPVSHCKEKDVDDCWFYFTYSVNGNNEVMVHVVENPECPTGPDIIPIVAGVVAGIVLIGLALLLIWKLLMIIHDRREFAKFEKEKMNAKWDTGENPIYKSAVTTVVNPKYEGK
Sequence of beta1 integrin on mammary epithelial cells (MECs) (P09055 21-798 limits assumed): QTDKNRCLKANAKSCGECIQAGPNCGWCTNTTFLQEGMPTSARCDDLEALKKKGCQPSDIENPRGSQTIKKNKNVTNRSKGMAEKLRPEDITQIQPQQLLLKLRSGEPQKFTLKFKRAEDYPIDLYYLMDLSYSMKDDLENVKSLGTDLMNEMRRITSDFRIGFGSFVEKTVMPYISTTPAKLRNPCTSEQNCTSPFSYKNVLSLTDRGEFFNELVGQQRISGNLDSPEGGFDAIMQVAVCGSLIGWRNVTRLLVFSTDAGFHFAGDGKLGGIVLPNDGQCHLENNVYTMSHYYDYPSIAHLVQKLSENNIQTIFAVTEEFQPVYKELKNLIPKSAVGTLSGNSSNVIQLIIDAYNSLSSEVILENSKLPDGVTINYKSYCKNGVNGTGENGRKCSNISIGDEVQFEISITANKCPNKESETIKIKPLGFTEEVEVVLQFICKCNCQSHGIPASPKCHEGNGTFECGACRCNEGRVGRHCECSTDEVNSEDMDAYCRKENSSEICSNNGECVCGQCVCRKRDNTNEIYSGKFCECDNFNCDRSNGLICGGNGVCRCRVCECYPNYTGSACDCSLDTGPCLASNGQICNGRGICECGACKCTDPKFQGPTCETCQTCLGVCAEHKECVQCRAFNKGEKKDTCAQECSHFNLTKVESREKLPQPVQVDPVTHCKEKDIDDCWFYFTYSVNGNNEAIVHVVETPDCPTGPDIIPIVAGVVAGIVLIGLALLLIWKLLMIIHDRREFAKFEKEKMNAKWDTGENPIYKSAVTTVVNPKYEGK

Hat2/5 antibody was tested. Which Ln internalization, cellular fluorescence intensity of Rhod-Ln by flow cytometry, normalized to Ln alone control [1] did it give?
Its Ln internalization, cellular fluorescence intensity of Rhod-Ln by flow cytometry, normalized to Ln alone control is 36 % decrease.

Which MFI of internalized Rhod-Ln, flow cytometry, LN18 cells [2] does the source give for “rhodamine-labeled laminin-111 (from UniProt P19137 25-3083; P02469 22-1786; P02468 34-1607) (ligand)” here?
Its MFI of internalized Rhod-Ln, flow cytometry, LN18 cells is 0.145 MFI.

What about the MFI of internalized Rhod-Ln, flow cytometry, MDA-MB-231 cells [2] of the same substance?
Its MFI of internalized Rhod-Ln, flow cytometry, MDA-MB-231 cells is 0.1 MFI.

“rhodamine-labeled laminin-111, P19137 25-3083; P02469 22-1786; P02468 34-1607” was tested. Which MFI of internalized laminin, flow cytometry, E3D1cre19 cells [3] did it give?
The MFI of internalized laminin, flow cytometry, E3D1cre19 cells was 26.8 MFI.

What about the change in laminin internalization on re-expression of WT β1 integrin in β1 int-/- cells [3] of the same substance?
Its change in laminin internalization on re-expression of WT β1 integrin in β1 int-/- cells is 20 % increase.

And the MFI of internalized Rhod-Ln, flow cytometry, LN18 cells [4]?
The MFI of internalized Rhod-Ln, flow cytometry, LN18 cells was 1.49 MFI.

What about the MFI of internalized Rhod-Ln, flow cytometry, MDA-MB-231 cells [4] of the same substance?
Its MFI of internalized Rhod-Ln, flow cytometry, MDA-MB-231 cells is 6.82 MFI.

What about the increase in MFI of internalized laminin, LARGE-expressing against vector LN18 cells [4] of the same substance?
The increase in MFI of internalized laminin, LARGE-expressing against vector LN18 cells was 10 fold.

And the increase in MFI of internalized laminin, LARGE-expressing against vector MDA-MB-231 cells [4]?
Its increase in MFI of internalized laminin, LARGE-expressing against vector MDA-MB-231 cells is 68 fold.

What about the compiled MFI of internalized Rhod-Ln, DG-expressing against DG-lacking MEpG cells [5] of the same substance?
The compiled MFI of internalized Rhod-Ln, DG-expressing against DG-lacking MEpG cells was 4 fold.

And the compiled mean fluorescence intensity (MFI) of internalized Rhod-Ln, flow cytometry, MEpG cells [5]?
Its compiled mean fluorescence intensity (MFI) of internalized Rhod-Ln, flow cytometry, MEpG cells is 18 MFI.

And the laminin internalization, compiled mean fluorescence intensity flow cytometry data [5]?
Its laminin internalization, compiled mean fluorescence intensity flow cytometry data is 380 % more.

Source: patent US20150374845A1
